One test deals with T1, PDL1-hFc (human, UniProt Q9NZQ7 19-238, limits assumed).
T1 construct: Coating antigen of the ELISA on human PD-L1 and of the T cell proliferation assay; also called humanPDL-1; 人PDL-1; not shown: human Fc (hFc)
In words: ELISA, PDL1-hFc coated 1 ug/ml, antibody titrated, HRP secondary.

A further test deals with T2, MonkeyPDL1-his (monkey).
T2 construct: Coating antigen of the ELISA on monkey PD-L1; also called 猴PDL-1
In words: ELISA, MonkeyPDL1-his coated 1 ug/ml, antibody titrated, HRP secondary.

T1 sequence (Q9NZQ7 19-238 limits assumed): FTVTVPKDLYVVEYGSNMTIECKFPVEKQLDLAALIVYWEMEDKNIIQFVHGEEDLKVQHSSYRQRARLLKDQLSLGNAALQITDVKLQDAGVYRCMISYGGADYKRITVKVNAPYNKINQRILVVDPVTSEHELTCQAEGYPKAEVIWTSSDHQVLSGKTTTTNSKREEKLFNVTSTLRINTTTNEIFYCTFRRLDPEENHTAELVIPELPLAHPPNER

B1: H017-6F11.3.2 (antibody, mouse IgG2b, V domains shown)
VH: EVQLQQSGAELVKPGASVKLSCTASGFNIKDTYIHWMRQRPEQGLEWIGRIDPANDNTKYDPKFQGKATVTADTSSNTAYLQLSSLTSEDTAVYYCARGLRLRYFDVWGAGTTVTVSS
VL: DIQMTQTPSSLSASLGGKVTITCKASQDIHKYIAWYQHKPGKGPRLLIHYTSTLQPGIPSRFSGSGSGRDFSFSISNLEPEDFETYYCLQYENLLPTFGGGTKLEIK
notes: Mouse hybridoma antibody purified from supernatant
Consider B1, for which the EC50 in the test with PDL1-hFc was 49 pM; with MonkeyPDL1-his it was 123 pM.

B2: H018-17B5.5.1 (antibody, mouse IgG1, V domains shown)
VH: QVQLQQSGAELMKPGASVKISCKATGYKFSSYWIEWVKQRPGHGLEWIGEILPGSGNPNYDEKFKGKATFTADTSSNTAYMQLSSLTSEDSAVYYCARERWMDSWGQGTSVTVSS
VL: DIQMTQTASSLSASLGDRVTISCSASQGIFNYLNWYQQKPDGTVTVLIYYTSRLHSGVPSRFSGSGSGTDYSLTISNLEPEDIATYYCQQYSKLPYTFGGGTKLEIKR
notes: as for B1
As to B2, the EC50 with PDL1-hFc came to 133 pM; with MonkeyPDL1-his it was 700 pM.

B3: H017-9C10.2.8 (antibody, mouse IgG1, V domains shown)
VH: QVQLKQSGFGLVLPSQSLSITCTVSGFSLTSYGVHWVRQSPGKGLEWLGLIWSGGGTDYNAAFISRLSISKDNSKSQVFFKINSLQANDTAIYYCARQLGLRAMDYWGQGTSVTVSS
VL: DILLTQSPAILSVSPGERVSFSCRASQSIGTTIHWYQQRTNGSPRLLIKYASESVSGIPSRFSGSGSGTDFTLSINSVESEDIADYYCQQSNSWPLTFGAGTKLEIK
notes: as for B1
On to B3, for which the concentration for a half-maximal effect (EC50) in the test with PDL1-hFc worked out at 79 pM; in the test with MonkeyPDL1-his, 191 pM.

These data come from patent CN105461808A (CHANGCHUN GENESCIENCE PHARMACEUTICALS CO LTD, dated 2016).
